System: peptide library, one residue held at a place counted from the Y acceptor
Experiment: relative phosphorylation of the sub-library (ratio to the mean residue at this position); higher = residue favoured
How it was run: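 Purified recombinant kinases were given 50 μM ATP with γ-32P-ATP and biotinylated Tyr-centred peptide library mixtures for 90 min in 384-well plates. Peptides bound to streptavidin membranes were rinsed and quantified by phosphorimaging, and intensities were normalized per position by the sum of the 18 randomized residues (16 with the Ser/Thr-free library) and multiplied by that number. The reported values are phosphorylation relative to the mean randomized residue.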

Chain of PTK2, construct: Full length, human (Q05397 whole entry, looked up): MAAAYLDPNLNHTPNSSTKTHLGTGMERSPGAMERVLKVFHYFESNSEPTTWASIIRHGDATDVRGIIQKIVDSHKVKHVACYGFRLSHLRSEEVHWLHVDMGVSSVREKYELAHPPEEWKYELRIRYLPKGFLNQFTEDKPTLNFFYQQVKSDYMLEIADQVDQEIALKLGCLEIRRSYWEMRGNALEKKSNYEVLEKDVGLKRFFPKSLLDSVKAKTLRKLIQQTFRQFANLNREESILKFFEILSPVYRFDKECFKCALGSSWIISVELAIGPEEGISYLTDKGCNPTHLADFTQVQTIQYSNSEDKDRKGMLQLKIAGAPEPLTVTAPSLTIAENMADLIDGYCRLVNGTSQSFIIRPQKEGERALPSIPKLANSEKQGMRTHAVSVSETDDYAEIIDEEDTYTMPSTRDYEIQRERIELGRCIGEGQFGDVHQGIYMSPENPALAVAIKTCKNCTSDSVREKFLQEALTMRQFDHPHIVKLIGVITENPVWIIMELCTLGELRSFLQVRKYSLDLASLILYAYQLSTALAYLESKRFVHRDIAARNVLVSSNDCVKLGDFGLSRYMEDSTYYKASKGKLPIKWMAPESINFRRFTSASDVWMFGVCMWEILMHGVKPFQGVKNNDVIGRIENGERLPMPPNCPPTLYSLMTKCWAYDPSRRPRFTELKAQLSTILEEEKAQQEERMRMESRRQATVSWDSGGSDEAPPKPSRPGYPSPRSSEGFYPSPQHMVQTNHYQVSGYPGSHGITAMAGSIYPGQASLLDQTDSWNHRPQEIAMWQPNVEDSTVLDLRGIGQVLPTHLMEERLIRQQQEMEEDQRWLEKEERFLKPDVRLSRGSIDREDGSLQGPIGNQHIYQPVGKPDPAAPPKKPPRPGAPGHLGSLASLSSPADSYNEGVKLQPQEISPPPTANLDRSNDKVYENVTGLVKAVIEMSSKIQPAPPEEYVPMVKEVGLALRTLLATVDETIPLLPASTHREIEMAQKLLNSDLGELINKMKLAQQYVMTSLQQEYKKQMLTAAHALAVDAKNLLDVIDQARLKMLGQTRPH

PTK2, construct: Full length, human (from UniProt Q05397)
relative phosphorylation
Conditions | at +1 | at +2 | at +3 | at +4 | at +5 | at -1 | at -2 | at -3 | at -4 | at -5
A fixed | 1.98 | 0.732 | 0.861 | 0.842 | 1.02 | 0.632 | 1.05 | 0.673 | 0.936 | 0.931
D fixed | 1.73 | 1.7 | 0.677 | 0.971 | 1.21 | 5.68 | 1.57 | 1.78 | 1.51 | 1.39
E fixed | 1.85 | 2.34 | 0.705 | 1.19 | 1.23 | 1.38 | 1.77 | 2.18 | 1.61 | 1.37
F fixed | 0.794 | 1.18 | 1.29 | 0.961 | 0.944 | 0.654 | 0.858 | 1.06 | 1.21 | 1.02
G fixed | 1.09 | 0.625 | 0.731 | 1.14 | 1.21 | 0.575 | 1.03 | 0.851 | 1.08 | 1.1
H fixed | 0.724 | 0.825 | 0.752 | 1.17 | 0.86 | 0.57 | 0.801 | 1.42 | 0.891 | 0.935
I fixed | 0.99 | 1.13 | 2.19 | 0.964 | 0.811 | 1.17 | 0.839 | 0.757 | 0.968 | 1.11
K fixed | 0.526 | 0.574 | 0.561 | 0.743 | 0.656 | 0.508 | 0.688 | 0.702 | 0.708 | 0.806
L fixed | 0.66 | 0.909 | 1.58 | 0.792 | 0.933 | 0.784 | 0.814 | 0.801 | 1.08 | 1.04
M fixed | 0.833 | 0.912 | 1.03 | 1.04 | 0.9 | 0.637 | 0.76 | 1.16 | 0.859 | 1.04
N fixed | 0.699 | 1.04 | 0.613 | 0.759 | 0.852 | 0.882 | 1.42 | 1.11 | 0.917 | 0.976
P fixed | 0.506 | 0.653 | 1.5 | 1.07 | 1.63 | 0.553 | 1.25 | 0.665 | 0.895 | 0.934
Q fixed | 0.914 | 0.677 | 0.631 | 0.824 | 0.841 | 0.578 | 0.946 | 0.85 | 1 | 0.909
R fixed | 0.538 | 0.612 | 0.59 | 0.758 | 0.678 | 0.512 | 0.689 | 0.78 | 0.725 | 0.868
S fixed | 1.1 | 0.804 | 0.713 | 0.849 | 1.07 | 0.577 | 1.02 | 0.742 | 0.785 | 0.802
T fixed | 0.879 | 0.815 | 0.795 | 0.815 | 1.21 | 0.76 | 0.765 | 0.702 | 0.724 | 0.808
V fixed | 1.27 | 0.965 | 1.61 | 0.933 | 0.868 | 0.964 | 0.882 | 0.719 | 0.831 | 0.884
W fixed | 0.911 | 1.52 | 1.18 | 2.19 | 1.07 | 0.579 | 0.833 | 1.05 | 1.27 | 1.07
pThr fixed | 5.07 | 4.12 | 0.915 | 1.1 | 1.89 | 7.51 | 2.09 | 1.88 | 1.74 | 1.39
pTyr fixed | 3.81 | 12.2 | 1.18 | 1.35 | 1.58 | 1.35 | 1.33 | 1.76 | 2.01 | 1.55
